Experimental findings from PMC8863788, “A multiparametric fluorescence assay for screening aptamer–protein interactions based on microbeads” are described below.

Holding throughout (test): fluorescent microbead binding (VideoScan)
One series addresses PfLDH (UniProt Q76NM3 1-316). The note with it: protein: recombinant; chain copies: 4.
The target of another series is Thrombin (UniProt P00734;P00734 328-363;364-622).
The next series concerns the target Interferon gamma (IFNγ) (UniProt P01579 24-161). The note with it: protein: commercial; chain copies: 2.

Interferon gamma (IFNγ), sequence (P01579 24-161): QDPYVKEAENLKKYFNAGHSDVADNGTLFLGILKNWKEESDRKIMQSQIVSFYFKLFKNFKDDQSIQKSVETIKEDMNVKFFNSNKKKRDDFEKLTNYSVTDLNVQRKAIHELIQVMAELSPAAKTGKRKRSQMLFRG

For CTGGGCGGTAGAACCATAGTGACCCAGCCGTCTAC (structured_DNA) [PfLDH-apta], the binding signal with PfLDH was ~2 fold signal vs no divalent cations; with Thrombin it was about 8 fold signal increase; in the series with Interferon gamma (IFNγ) it was about 6 fold signal increase.
